Measured values reported in the PETadex activity labels (doi:10.1038/s41586-022-04599-z).

B1: unnamed (protein)
chain: SNPYQRGPNPTRSALTADGPFSVATYTVSRLSVSGFGGGVIYYPTGTSLTFGGIAMSPGYTADASSLAWLGRRLASHGFVVLVINTNSRFDYPDSRASQLSAALNYLRTSSPSAVRARLDANRLAVAGHSMGGGGTLRIAEQNPSLKAAVPLTPWHTDKTFNTSVPVLIVGAEADTVAPVSQHAIPFYQNLPSTTPKVYVELDNASHFAPNSNNAAISVYTISWMKLWVDNDTRYRQFLCNVNDPALSDFRTNNRHCQLEHHHHHH
B2: unnamed (protein)
chain: QTNPYARGPNPTAASLEASAGPFTVRSFTVSRPSGYGAGTVYYPTNAGGTVGAIAIVPGYTARQSSIKWWGPRLASHGFVVITIDTNSTLDQPESRSSQQMAALRQVASLNGTSSSPIYGKVDTARMGVMGWSMGGGGSLISAANNPSLKAAAPQAPWHSSTNFSSVTVPTLIFACENDSIAPVNSSALPIYDSMSRNAKQFLEINGGSHSCANSGNSNQALIGKKGVAWMKRFMDNDTRYSTFACENPNSTAVSDFRTANCSLEHHHHHH
B3: unnamed (protein)
chain: QTNPYARGPNPTAASLEASAGPFTVRSFTVSRPSGYGAGTVYYPTNAGGTVGAIAIVPGYTARQSSIKWWGPRLASHGFVVITIDTNSTLDQPESRSSQQMAALRQVASLNGTSSSPIYGKVDTARMGVMGWSMGGGGSLISAANNPSLKAAAPQAPWHSSTNFSSVTVPTLIFACENDSIAPVNSSALPIYDSMSQNAKQFLEIKGGSHSCANSGNSNQALIGKKGVAWMKRFMDNDTRYSTFACENPNSTAVSDFRTANCSLEHHHHHH
B4: unnamed (protein)
chain: QTNPYARGPNPTAASLEASAGPFTVRSFTVSRPSGYGAGTVYYPTNAGGTVGAIAIVPGYTARQSSIKWWGPRLASHGFVVITIDTNSTLDQPSSRSSQQMAALRQVASLNGTSSSPIYGKVDTARMGVMGWSMGGGGSLISAANNPSLKAAAPQAPWDSSTNFSSVTVPTLIFACENDSIAPVNSSALPIYDSMSRNAKQFLEINGGSHSCANSGNSNQALIGKKGVAWMKRFMDNDTRYSTFACENPNSTRVSDFRTANCSLEHHHHHH
B5: unnamed (protein)
chain: QTNPYARGPNPTAASLEASAGPFTVRSFTVSRPSGYGAGTVYYPTNAGGTVGAIAIVPGYTARQSSIKWWGPRLASHGFVVITIDTNSTFDYPSSRSSQQMAALRQVASLNGDSSSPIYGKVDTARMGVMGHSMGGGASLRSAANNPSLKAAIPQAPWDSQTNFSSVTVPTLIFACENDSIAPVNSHALPIYDSMSRNAKQFLEINGGSHSCANSGNSNQALIGKKGVAWMKRFMDNDTRYSTFACENPNSTAVSDFRTANCSLEHHHHHH
B6: unnamed (protein)
chain: MSNPYQRGPNPTRSALTADGPFSVATYTVSRLSVSGFGGGVIYYPTGTSLTFGGIAMSPGYTADASSLAWLGRRLASHGFVVLVINTNSRFDYPDSRASQLSAALNYLRTSSPSAVRARLDANRLAVAGHSMGGGGTLRIAEQNPSLKAAVPLTPWHTDKTFNTSVPVLIVGAEADTVAPVSQHAIPFYQNLPSTTPKVYVELCNASHIAPMSNNAAISVYTISWMKLWVDNDTRYRQFLCNVNDPALCDFRTNNRHCQLEHHHHHH

Substrate: PET
Test: Proxy for plastic degradation [Released monomer concentration (HPLC/LC-MS) (MHET+TPA)]
[1] = pH 6.5, 30 °C, part of the chain shown
[2] = pH 6.5, 40 °C, part of the chain shown
[3] = pH 7, 30 °C, part of the chain shown
[4] = pH 7, 40 °C, part of the chain shown
[5] = pH 7.5, 30 °C, part of the chain shown
[6] = pH 7.5, 40 °C, part of the chain shown
[7] = pH 8, 30 °C, part of the chain shown
[8] = pH 8, 40 °C, part of the chain shown

Protein | Proxy for plastic degradation (pH 6.5, 30 °C) [mM] | Proxy for plastic degradation (pH 6.5, 40 °C) [mM] | Proxy for plastic degradation (pH 7, 30 °C) [mM] | Proxy for plastic degradation (pH 7, 40 °C) [mM] | Proxy for plastic degradation (pH 7.5, 30 °C) [mM] | Proxy for plastic degradation (pH 7.5, 40 °C) [mM] | Proxy for plastic degradation (pH 8, 30 °C) [mM] | Proxy for plastic degradation (pH 8, 40 °C) [mM] | Proxy for plastic degradation [1] [mM] | Proxy for plastic degradation [2] [mM] | Proxy for plastic degradation [3] [mM] | Proxy for plastic degradation [4] [mM] | Proxy for plastic degradation [5] [mM] | Proxy for plastic degradation [6] [mM] | Proxy for plastic degradation [7] [mM] | Proxy for plastic degradation [8] [mM] | further results
B1 | 0.17 | 0.2 | 0.2 | 0.4 | 0.22 | 1.9 | 0.25 | 2.3 | – | – | – | – | – | – | – | – | –
B2 | – | – | – | – | – | – | – | – | 0.6 | 0.5 | 1.2 | 9 | 2.3 | 12 | 2.9 | 13 | –
B3 | – | – | – | – | – | – | – | – | 0.7 | 1 | 1.5 | 12 | 2.9 | 19 | 3.6 | 32 | Proxy for plastic degradation (pH 8, 1 h, part of the chain shown): 13.4 mM; Proxy for plastic degradation (pH 8, 2 h, part of the chain shown): 31.1 mM; Proxy for plastic degradation (pH 8, 3 h, part of the chain shown): 48.7 mM; Proxy for plastic degradation (pH 8, 4 h, part of the chain shown): 66.7 mM; Proxy for plastic degradation (pH 8, 5 h, part of the chain shown): 88 mM; Proxy for plastic degradation (pH 8, 6 h, part of the chain shown): 109 mM; Proxy for plastic degradation (pH 8, 7 h, part of the chain shown): 131 mM; Proxy for plastic degradation (pH 8, 8 h, part of the chain shown): 148 mM; Proxy for plastic degradation (pH 8, 9 h, part of the chain shown): 163 mM; Proxy for plastic degradation (pH 8, 10 h, part of the chain shown): 175 mM; Proxy for plastic degradation (pH 8, 11 h, part of the chain shown): 185 mM; Proxy for plastic degradation (pH 8, 12 h, part of the chain shown): 195 mM; Proxy for plastic degradation (pH 8, 13 h, part of the chain shown): 204 mM; Proxy for plastic degradation (pH 8, 13.5 h, part of the chain shown): 208 mM
B4 | – | – | – | – | – | – | – | – | 0.1 | 0 | 0.15 | 0 | 0.25 | 0 | 0.6 | 0.2 | –
B5 | – | – | – | – | – | – | – | – | 0.15 | 0 | 0.15 | 0.3 | 0.2 | 1 | 0.15 | 2 | –
B6 | 0.18 | 0.8 | 0.23 | 2 | 0.23 | 3 | 0.37 | 4 | – | – | – | – | – | – | – | – | –
